Source: the supplement of paper PMC7877785
± gives the uncertainty stated by the source.

Assay: self-splicing fitness, log relative to wild type (ln ratio); higher = more splicing; Tetrahymena group I intron in knt gene, E. coli kanamycin selection, DiMSum; sequences stand for … in CUCUCU…GGAGGGAAAAGUUAUCAGGCAUGCACCUGGUAGCUAGUCUUUAAACCAAUAGAUUGCAUCGGUUUAAAAGGCAAGACCGUCAAAUUGCGGGAAAGGGGUCAACAGCCGUUCAGUACCAAGUCUCAGGGGAAACUUUGAGAUGGCCUUGCAAAGGGUAUGGUAAUAAGCUGACGGACAUGGUCCUAACCACGCAGCCAAGUCCUAAGUCAACAGAUCUUCUGUUGAUAUGGAUGCAGUUCACAGACUAAAUGUCGGUCGGGGAAGAUGUAUUCUUCUCAUAAGAUAUAGUCGGACCUCUCCUUAAUGGGAGCUAGCGGAUGAAGUGAUGCAACACUGGAGCCGCUGGGAACUAAUUUGUAUGCGAAAGUAUAUUGAUUAGUUUUGGAGUACUCGUGGUCG
Summary of the method: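 Colonies from six replicate transformations of E. coli BL21(DE3) were pooled and amplicon-sequenced on an Illumina HiSeq 2500. The library placed an intron with all eight P1ex-region nucleotides randomised inside the knt kanamycin-resistance gene on pET-22b(+), and cells grew overnight at 37°C or 30°C on LB agar with or without 25 μg/mL kanamycin (plus 100 μg/mL carbenicillin, 50 μM IPTG, 0.2% rhamnose). Fitness is the DiMSum error-weighted combination of wild-type-normalised replicate fold changes, kanamycin versus none.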

For UGCUAGCAAUAUUACGCGAC, which “self-splicing fitness (ln)” value (30 °C) is on record?
Its value is -2.66 ± 0.26.

What about the “self-splicing fitness (ln)” value (37 °C) of the same sequence?
The value was -1.58 ± 0.3.

What does the source list for UUGCAGCAAUAUUACGCGAA?
self-splicing fitness (ln) (30 °C): -0.925 ± 0.16; self-splicing fitness (ln) (37 °C): -0.846 ± 0.14

For AAACAGCAAUAUUACGUUGG, which “self-splicing fitness (ln)” value (30 °C) is on record?
Its value is -3.61 ± 0.1.

What about the “self-splicing fitness (ln)” value (37 °C) of the same sequence?
The value was -2.43 ± 0.11.

Which results are given for UGAAAGCAAUAUUACGUCGU?
self-splicing fitness (ln) (30 °C): -4.87 ± 0.36; self-splicing fitness (ln) (37 °C): -1.38 ± 0.12

With CUCGAGCAAUAUUACGUGAA as the sequence, how does the “self-splicing fitness (ln)” value (30 °C) read?
The value was -2.47 ± 0.21.

And the “self-splicing fitness (ln)” value (37 °C)?
The value was -2.93 ± 0.47.

Which “self-splicing fitness (ln)” value (30 °C) does the source give for AUUCAGCAAUAUUACGGGAG here?
The value was -0.828 ± 0.051.

What about the “self-splicing fitness (ln)” value (37 °C) of the same sequence?
Its value is -0.443 ± 0.063.

Which “self-splicing fitness (ln)” value (37 °C) does the source give for CUUAAGCAAUAUUACGAGAC here?
The value was -3.26 ± 0.43.

Which “self-splicing fitness (ln)” value (30 °C) does the source give for GCCUAGCAAUAUUACGUGCA here?
The value was -2.35 ± 0.12.

What about the “self-splicing fitness (ln)” value (37 °C) of the same sequence?
Its value is -0.937 ± 0.1.

For AGCAAGCAAUAUUACGAUCA, which “self-splicing fitness (ln)” value (30 °C) is on record?
Its value is -0.258 ± 0.084.

And the “self-splicing fitness (ln)” value (37 °C)?
The value was -0.0192 ± 0.099.

Which “self-splicing fitness (ln)” value (30 °C) does the source give for CGAUAGCAAUAUUACGACGG here?
The value was 0.185 ± 0.098.

And the “self-splicing fitness (ln)” value (37 °C)?
Its value is 0.424 ± 0.14.

For ACCAAGCAAUAUUACGUUUA, which “self-splicing fitness (ln)” value (30 °C) is on record?
Its value is -2.41 ± 0.12.

What about the “self-splicing fitness (ln)” value (37 °C) of the same sequence?
The value was -1.82 ± 0.11.

For GCAUAGCAAUAUUACGGGUU, which “self-splicing fitness (ln)” value (30 °C) is on record?
Its value is -1.79 ± 0.091.

What about the “self-splicing fitness (ln)” value (37 °C) of the same sequence?
The value was -0.302 ± 0.088.

For GGAAAGCAAUAUUACGAGCC, which “self-splicing fitness (ln)” value (30 °C) is on record?
Its value is -1.45 ± 0.12.

What about the “self-splicing fitness (ln)” value (37 °C) of the same sequence?
The value was -0.842 ± 0.17.

With GAUCAGCAAUAUUACGGCGU as the sequence, how does the “self-splicing fitness (ln)” value (30 °C) read?
Its value is -0.292 ± 0.086.

And the “self-splicing fitness (ln)” value (37 °C)?
The value was 0.2 ± 0.1.

Which results are given for UGAUAGCAAUAUUACGUCUU?
self-splicing fitness (ln) (30 °C): -1.22 ± 0.092; self-splicing fitness (ln) (37 °C): -1.33 ± 0.09

Which “self-splicing fitness (ln)” value (30 °C) does the source give for CGUGAGCAAUAUUACGAAGU here?
Its value is -3.6 ± 0.21.

And the “self-splicing fitness (ln)” value (37 °C)?
The value was -2.41 ± 0.19.

Which “self-splicing fitness (ln)” value (30 °C) does the source give for GACUAGCAAUAUUACGCAAU here?
The value was -1.34 ± 0.19.

And the “self-splicing fitness (ln)” value (37 °C)?
The value was -1.38 ± 0.17.

Which “self-splicing fitness (ln)” value (30 °C) does the source give for CUAUAGCAAUAUUACGAAUG here?
Its value is -0.481 ± 0.087.

What about the “self-splicing fitness (ln)” value (37 °C) of the same sequence?
The value was 0.0255 ± 0.12.

For AUAGAGCAAUAUUACGUACA, which “self-splicing fitness (ln)” value (30 °C) is on record?
The value was -1.62 ± 0.098.

What about the “self-splicing fitness (ln)” value (37 °C) of the same sequence?
Its value is -0.944 ± 0.12.

For AUAUAGCAAUAUUACGAUUG, which “self-splicing fitness (ln)” value (30 °C) is on record?
Its value is -2.96 ± 0.18.

And the “self-splicing fitness (ln)” value (37 °C)?
Its value is -3.2 ± 0.4.

For CGGUAGCAAUAUUACGCAGU, which “self-splicing fitness (ln)” value (30 °C) is on record?
The value was -4.22 ± 0.22.

And the “self-splicing fitness (ln)” value (37 °C)?
The value was -2.63 ± 0.16.

With GCUGAGCAAUAUUACGACAG as the sequence, how does the “self-splicing fitness (ln)” value (30 °C) read?
The value was -1.05 ± 0.31.

For GCCCAGCAAUAUUACGUAAU, which “self-splicing fitness (ln)” value (30 °C) is on record?
The value was -0.747 ± 0.06.

And the “self-splicing fitness (ln)” value (37 °C)?
The value was -0.32 ± 0.067.

Which “self-splicing fitness (ln)” value (30 °C) does the source give for ACGGAGCAAUAUUACGGGCG here?
Its value is -2.12 ± 0.19.

And the “self-splicing fitness (ln)” value (37 °C)?
Its value is -0.224 ± 0.19.

Which “self-splicing fitness (ln)” value (30 °C) does the source give for AUCCAGCAAUAUUACGGACU here?
Its value is -0.507 ± 0.068.

And the “self-splicing fitness (ln)” value (37 °C)?
Its value is 0.126 ± 0.082.

With AAUUAGCAAUAUUACGCAGA as the sequence, how does the “self-splicing fitness (ln)” value (30 °C) read?
Its value is -1.71 ± 0.33.

What about the “self-splicing fitness (ln)” value (37 °C) of the same sequence?
Its value is -1.24 ± 0.31.

With UCGGAGCAAUAUUACGUUUA as the sequence, how does the “self-splicing fitness (ln)” value (30 °C) read?
The value was -2.32 ± 0.29.

And the “self-splicing fitness (ln)” value (37 °C)?
Its value is -2.35 ± 0.42.

For UCCUAGCAAUAUUACGACCA, which “self-splicing fitness (ln)” value (30 °C) is on record?
Its value is -0.552 ± 0.22.

What about the “self-splicing fitness (ln)” value (37 °C) of the same sequence?
The value was -2.28 ± 0.35.

With UCAGAGCAAUAUUACGGUUU as the sequence, how does the “self-splicing fitness (ln)” value (30 °C) read?
The value was -3.76 ± 0.28.

What about the “self-splicing fitness (ln)” value (37 °C) of the same sequence?
Its value is -2.07 ± 0.18.

Which “self-splicing fitness (ln)” value (30 °C) does the source give for AUGGAGCAAUAUUACGCAGA here?
The value was -2.19 ± 0.32.

With CCGCAGCAAUAUUACGGCUU as the sequence, how does the “self-splicing fitness (ln)” value (30 °C) read?
Its value is -4.44 ± 0.27.

And the “self-splicing fitness (ln)” value (37 °C)?
The value was -2.45 ± 0.21.

For AAGUAGCAAUAUUACGGAUG, which “self-splicing fitness (ln)” value (30 °C) is on record?
The value was -3.53 ± 0.39.

And the “self-splicing fitness (ln)” value (37 °C)?
Its value is -1.76 ± 0.17.

With GUUAAGCAAUAUUACGCAUG as the sequence, how does the “self-splicing fitness (ln)” value (30 °C) read?
The value was -1.11 ± 0.083.

And the “self-splicing fitness (ln)” value (37 °C)?
The value was -0.624 ± 0.11.

Which results are given for ACGCAGCAAUAUUACGUGAC?
self-splicing fitness (ln) (30 °C): -3.45 ± 0.25; self-splicing fitness (ln) (37 °C): -2.3 ± 0.21

What does the source list for ACUCAGCAAUAUUACGGAUU?
self-splicing fitness (ln) (30 °C): -0.597 ± 0.055; self-splicing fitness (ln) (37 °C): 0.0271 ± 0.076

Which results are given for AGCCAGCAAUAUUACGUCAU?
self-splicing fitness (ln) (30 °C): -2.29 ± 0.12; self-splicing fitness (ln) (37 °C): -0.981 ± 0.15

For CCCGAGCAAUAUUACGUCAU, which “self-splicing fitness (ln)” value (30 °C) is on record?
Its value is -3.95 ± 0.31.

What about the “self-splicing fitness (ln)” value (37 °C) of the same sequence?
Its value is -2.99 ± 0.26.

For ACCCAGCAAUAUUACGGGGG, which “self-splicing fitness (ln)” value (30 °C) is on record?
Its value is -3.46 ± 0.17.

What about the “self-splicing fitness (ln)” value (37 °C) of the same sequence?
The value was -2.43 ± 0.15.
